Measured values taken from paper PMC4822050 (2016).
Residue numbers refer to the chain shown, from its start. Non-standard residues stand in square brackets, D forms with d. No end group written: not given here. pS = N[C@@H](COP(=O)(O)O)C(=O)O

T1: SRA–Spacer of UHRF1 (residues 414–674) (human, UniProt Q96T88 414-674)
T1 chain: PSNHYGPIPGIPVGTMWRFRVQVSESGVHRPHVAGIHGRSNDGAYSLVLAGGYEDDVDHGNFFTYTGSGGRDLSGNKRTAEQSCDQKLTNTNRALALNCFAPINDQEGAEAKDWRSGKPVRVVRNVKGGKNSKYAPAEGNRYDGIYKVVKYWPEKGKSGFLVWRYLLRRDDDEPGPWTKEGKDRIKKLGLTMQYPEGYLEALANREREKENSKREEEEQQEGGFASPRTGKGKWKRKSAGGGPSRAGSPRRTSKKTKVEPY

T2: Spacer^Δ650–654 (human, UniProt Q96T88 587-674, Δ650–654)
T2 sequence: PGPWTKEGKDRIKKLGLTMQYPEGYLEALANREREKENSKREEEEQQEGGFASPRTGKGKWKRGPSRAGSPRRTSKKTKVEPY

T3: Spacer^Δ642–651 (human, UniProt Q96T88 587-674, Δ642–651)
T3 sequence: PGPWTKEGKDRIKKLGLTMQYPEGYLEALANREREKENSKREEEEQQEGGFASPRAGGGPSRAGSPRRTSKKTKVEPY

T4: Spacer^Δ670–674 (human, UniProt Q96T88 587-674, Δ670–674)
T4 sequence: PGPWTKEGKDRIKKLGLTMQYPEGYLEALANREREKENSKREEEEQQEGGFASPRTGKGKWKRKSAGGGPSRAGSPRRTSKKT

T5: Spacer^Δ655–659 (human, UniProt Q96T88 587-674, Δ655–659)
T5 sequence: T2 sequence with G64K, P65S, S66A, R67G, A68G

T6: Spacer^Δ665–669 (human, UniProt Q96T88 587-674, Δ665–669)
T6 sequence: T4 sequence with T79K, S80V, K81E, K82P, T83Y

T7: Spacer^Δ660–664 (human, UniProt Q96T88 587-674, Δ660–664)
T7 sequence: T2 sequence with G64K, P65S, S66A, R67G, A68G, S70P, P71S, R73A

T8: Spacer K648D (human, UniProt Q96T88 587-674, K648D)
T8 sequence: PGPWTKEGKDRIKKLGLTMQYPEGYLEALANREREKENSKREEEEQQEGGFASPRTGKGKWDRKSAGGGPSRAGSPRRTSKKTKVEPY

T9: Spacer S666D (human, UniProt Q96T88 587-674, S666D)
T9 sequence: T8 sequence with D62K, S80D

T10: Spacer R649A (human, UniProt Q96T88 587-674, R649A)
T10 sequence: T8 sequence with D62K, R63A

T11: Spacer S639D (human, UniProt Q96T88 587-674, S639D)
T11 sequence: T8 sequence with S53D, D62K

T12: Spacer S651D (human, UniProt Q96T88 587-674, S651D)
T12 sequence: T8 sequence with D62K, S65D

B1: TTD of UHRF1 (residues 134–285) (domain or fragment)
chain: LYKVNEYVDARDTNMGAWFEAQVVRVTRKAPSRDEPCSSTSRPALEEDVIYHVKYDDYPENGVVQMNSRDVRARARTIIKWQDLEVGQVVMLNYNPDNPKERGFWYDAEISRKRETRTARELYANVVLGDDSLNDCRIIFVDEVFKIERPGE
B2: Spacer of UHRF1 (residues 587–674) (domain or fragment)
chain: T8 sequence with D62K

Columns and labels:
[1] = target: B1; assay: ITC; phosphorylated S651
[2] = target: B1; assay: ITC
[3] = target: T1, SRA–Spacer of UHRF1 (residues 414–674); assay: ITC
[4] = target: B2; assay: ITC
[5] = target: T2, Spacer^Δ650–654; assay: ITC
[6] = target: T3, Spacer^Δ642–651; assay: ITC
[7] = target: T4, Spacer^Δ670–674; assay: ITC
[8] = target: T5, Spacer^Δ655–659; assay: ITC
[9] = target: T6, Spacer^Δ665–669; assay: ITC
[10] = target: T7, Spacer^Δ660–664; assay: ITC
[11] = target: T8, Spacer K648D; assay: ITC
[12] = target: T9, Spacer S666D; assay: ITC
[13] = target: T10, Spacer R649A; assay: ITC
[14] = target: T11, Spacer S639D; assay: ITC
[15] = target: T12, Spacer S651D; assay: ITC
[16] = target: T1, SRA–Spacer of UHRF1 (residues 414–674); assay: ITC; in presence of hm-DNA (1:2)
[17] = target: B2; assay: ITC; in presence of hm-DNA (1:2)
[18] = target: B1; assay: ITC; in presence of Linker
[19] = target: B1; assay: ITC; in presence of Linker (TTD:Linker 1:2)

TGKGKWKRK[pS]AGGGPSRAGSPRR [peptide of Spacer^642–664 phosphorylated at S651]
Kd [1]: 27800 nM

TGKGKWKRKSAGGGPSRAGSPRRTSKKTKVEPY (domain or fragment) [Spacer^642–674]
Kd [2]: 970 nM

B1
Kd [3]: 820 nM | Kd [4]: 2340 nM | Kd [5]: 3800 nM | Kd [6]: 11200 nM | Kd [7]: 950 nM | Kd [8]: 2980 nM | Kd [9]: 1850 nM | Kd [10]: 2470 nM | Kd [11]: 5940 nM | Kd [12]: 1260 nM | Kd [13]: 21400 nM | Kd [14]: 1150 nM | Kd [15]: 8810 nM | Kd [16]: 143000 nM | Kd [17]: 2040 nM

B2
Kd [18]: 3730 nM | Kd [19]: 3730 nM

TGKGKWKRKSAGGGPSRAGSPRR [unmodified peptide of Spacer^642–664]
Kd [2]: 1260 nM
